Results published in paper PMC2856898 (The Journal of Cell Biology, 2010).

T1: His6-Dsn1 (subunit of the recombinant Mis12 complex) (human, UniProt Q9H410 1-356)
T1 sequence (looked up): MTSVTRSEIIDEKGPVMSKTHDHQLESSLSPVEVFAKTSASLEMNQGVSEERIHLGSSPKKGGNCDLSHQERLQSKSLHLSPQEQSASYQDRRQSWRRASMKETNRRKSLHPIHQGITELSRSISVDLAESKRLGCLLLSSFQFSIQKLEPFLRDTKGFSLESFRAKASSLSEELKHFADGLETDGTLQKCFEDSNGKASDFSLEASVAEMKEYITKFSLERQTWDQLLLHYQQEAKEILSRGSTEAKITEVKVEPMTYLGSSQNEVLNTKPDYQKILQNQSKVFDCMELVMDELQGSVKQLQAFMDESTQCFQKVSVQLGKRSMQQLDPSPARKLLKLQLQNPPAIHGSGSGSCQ


Each binder was assayed against T1, His6-Dsn1 (subunit of the recombinant …) (assay: co-sedimentation).

binding result	Binder
binds	Nsl1 (subunit of the recombinant Mis12 complex) (natural protein, human, UniProt Q96IY1 1-281, looked up) MAGSPELVVLDPPWDKELAAGTESQALVSATPREDFRVRCTSKRAVTEMLQLCGRFVQKLGDALPEEIREPALRDAQWTFESAVQENISINGQAWQEASDNCFMDSDIKVLEDQFDEIIVDIATKRKQYPRKILECVIKTIKAKQEILKQYHPVVHPLDLKYDPDPAPHMENLKCRGETVAKEISEAMKSLPALIEQGEGFSQVLRMQPVIHLQRIHQEVFSSCHRKPDAKPENFITQIETTPTETASRKTSDMVLKRKQTKDCPQRKWYPLRPKKINLDT
binds	Mis12 (subunit of the recombinant Mis12 complex) (natural protein, human, UniProt Q9H081 1-205, looked up) MSVDPMTYEAQFFGFTPQTCMLRIYIAFQDYLFEVMQAVEQVILKKLDGIPDCDISPVQIRKCTEKFLCFMKGHFDNLFSKMEQLFLQLILRIPSNILLPEDKCKETPYSEEDFQHLQKEIEQLQEKYKTELCTKQALLAELEEQKIVQAKLKQTLTFFDELHNVGRDHGTSDFRESLVSLVQNSRKLQNIRDNVEKESKRLKIS
binds	Nnf1 (subunit of the recombinant Mis12 complex) (natural protein, human, UniProt Q6P1K2 1-205, looked up) MAEASSANLGSGCEEKRHEGSSSESVPPGTTISRVKLLDTMVDTFLQKLVAAGSYQRFTDCYKCFYQLQPAMTQQIYDKFIAQLQTSIREEISDIKEEGNLEAVLNALDKIVEEGKVRKEPAWRPSGIPEKDLHSVMAPYFLQQRDTLRRHVQKQEAENQQLADAVLAGRRQVEELQLQVQAQQQAWQALHREQRELVAVLREPE
